Results reported in publication PMC4778124, “A continuous sirtuin activity assay without any coupling to enzymatic or chemical reactions” (Scientific Reports, 2016).
Where “and” joins values, the source holds several entries; their conditions need not be identical. Identical values can stand only once.

Legend:
[1] = substrate: CC(=O)N[C@@H](CCC(=O)O)C(=O)N[C@@H](C)C(=O)N[C@@H](CC(C)C)C(=O)N1CCC[C@H]1C(=O)N[C@@H](CCCCN)C(=O)N[C@@H](CCCCNC(=O)CCCCCCCCCCNC(=O)c1ccccc1N)C(=O)N[C@@H](Cc1ccc(O)c([N+](=O)[O-])c1)C(=O)NCC(=O)NCC(N)=O; assay: HPLC based activity assay; type: biochemical, human; settings: other: HPLC; Sirt2; pH 7.8; 37.0 °C
Experimental: (§1) For the determination of kinetic constants for all sirtuin mediated reactions solutions containing 20 mM TRIS/HCl pH 7.8, 150 mM NaCl, 5 mM MgCl2 (assay-buffer), 500 μM NAD^+ and varying substrate concentrations (0.5–100 μM) were used. Deacylation was started by adding human sirtuin to reach a final concentration of 0.01–0.5 μM. Enzyme-catalyzed reaction was stopped using TFA (1% final concentration) after 1 min to 180 min of incubation at 37 °C depending on substrate reactivity. The cleavage rate of the different TNFα peptide derivatives was analyzed using analytical reversed phase HPLC. 40 to 80 μl of compounds or reaction solutions were injected and separated using a linear gradient from 5% to 95% solvent B within 6min. The product and substrate peaks were quantified using absorbance at 220 nm or 365 nm (absorption of 3-Nitrotyrosyl moiety). The peak areas were integrated and converted to initial velocity rates calculated from the ratio of product area to total peak area. Linear regression of conversions plotted against time yielded reaction rates in μM/min (relative conversion below 20% of substrate). Non-linear regression according to Michaelis-Menten of the reaction rates at different substrate concentrations yielded KM- and kcat-values using the program SigmaPlot 8 (Systat Software, San Jose, USA). All measurements were done in duplicates.
(§2) The reactions were performed with 0.1- 0.5 µM sirtuin, 500 µM NAD^+ and 50µM 13/16. All reactions were done in duplicates (n=2).

[2] = substrate: CC(=O)N[C@@H](CCC(=O)O)C(=O)N[C@@H](C)C(=O)N[C@@H](CC(C)C)C(=O)N1CCC[C@H]1C(=O)N[C@@H](CCCCN)C(=O)N[C@@H](CCCCNC(=O)CCCCCNC(=O)c1ccccc1N)C(=O)N[C@@H](Cc1ccc(O)c([N+](=O)[O-])c1)C(=O)NCC(=O)NCC(N)=O; assay: HPLC based activity assay; type: biochemical, human; settings: other: HPLC; Sirt2; pH 7.8; 37.0 °C
Experimental: as §1, §2

[3] = substrate: CCCCCCCCCCCCCC(=O)NCCCC[C@H](NC(=O)[C@H](CCCCN)NC(=O)[C@@H]1CCCN1C(=O)[C@H](CC(C)C)NC(=O)[C@H](C)NC(=O)[C@H](CCC(=O)O)NC(C)=O)C(=O)N[C@H](C(=O)NCC(=O)NCC(N)=O)[C@@H](C)O; assay: HPLC based activity assay; type: biochemical, human; settings: other: HPLC; Sirt2; pH 7.8; 37.0 °C
Experimental: as §1, §2

[4] = substrate: CC(=O)N[C@@H](CCC(=O)O)C(=O)N[C@@H](C)C(=O)N[C@@H](CC(C)C)C(=O)N1CCC[C@H]1C(=O)N[C@@H](CCCCN)C(=O)N[C@@H](CCCCNC(=O)CCCCCCCCCCNC(=O)CN1C(=O)c2cccc3c(N(C)C)ccc(c23)C1=O)C(=O)N[C@@H](Cc1ccc(O)c([N+](=O)[O-])c1)C(=O)NCC(=O)NCC(N)=O; assay: purified protein, by the assay type; settings: other: MTPR (microtiter plate reader); Sirt2; 37.0 °C
Experimental: (§3) Each reaction mixture contained assay-buffer, 0.5 mM NAD^+ and various peptide concentrations (0.1–100 μM) and was preincubated for 5 minutes at 37 °C. The reaction was started by adding human sirtuin (0.1–0.5 μM) and observed for 5–10 minutes. Product formation could be monitored by increase of relative fluorescence. This signal was converted into product concentration via calibration lines. The slope of the linear regression of product formation against time yielded the reaction velocity rates in μM/s. KM and kcat were obtained by non-linear regression according to Michaelis-Menten. All measurements were done in duplicates. For determination of reaction velocity rates in μM/s calibration lines were necessary. […] The reaction mixture was analyzed with HPLC, to control if the entire peptide substrate was turned to product.
(§4) The reactions (total volume 100 μl) were measured in black low-binding 96-well microtiter plates (NUNC). Assay-buffer, 500 μM NAD^+ and 0.07–200 μM peptide substrate were pre-incubated at 37 °C for 5 min. The reaction was started by adding human sirtuin (0.01–0.5 μM). The signals were converted into product concentration via calibration lines and the resulting data were evaluated as described above (single fluorescence measurement). […] All measurements were done in duplicates. The reaction mixture for the calibration lines was prepared as described for the single fluorescence measurements.

[5] = substrate: CC(=O)N[C@@H](CCC(=O)O)C(=O)N[C@@H](C)C(=O)N[C@@H](CC(C)C)C(=O)N1CCC[C@H]1C(=O)N[C@@H](CCCCN)C(=O)N[C@@H](CCCCNC(=O)CCCCCCCCCCNC(=O)c1ccccc1N)C(=O)N[C@@H](Cc1ccc(O)c([N+](=O)[O-])c1)C(=O)NCC(=O)NCC(N)=O; assay: purified protein, by the assay type; settings: other: Sirt2, measured using fluorescence spectrophotometer (footnote a), 0.5 mM NAD+, 37 °C
Experimental: as §3, §4

[6] = substrate: CC(=O)N[C@@H](CCC(=O)O)C(=O)N[C@@H](C)C(=O)N[C@@H](CC(C)C)C(=O)N1CCC[C@H]1C(=O)N[C@@H](CCCCN)C(=O)N[C@@H](CCCCNC(=O)CCCCCCCNC(=O)c1ccccc1N)C(=O)N[C@@H](Cc1ccc(O)c([N+](=O)[O-])c1)C(=O)NCC(=O)NCC(N)=O; assay: purified protein, by the assay type; settings: other: Sirt2; measured using MTP fluorescence reader (footnote b); 37.0 °C
Experimental: as §3, §4

[7] = substrate: CC(=O)N[C@@H](CCC(=O)O)C(=O)N[C@@H](C)C(=O)N[C@@H](CC(C)C)C(=O)N1CCC[C@H]1C(=O)N[C@@H](CCCCN)C(=O)N[C@@H](CCCCNC(=O)CCCCCNC(=O)CCCCCNC(=O)c1ccccc1N)C(=O)N[C@@H](Cc1ccc(O)c([N+](=O)[O-])c1)C(=O)NCC(=O)NCC(N)=O; assay: purified protein, by the assay type; settings: other: Sirt2; measured using MTP fluorescence reader (footnote b); 37.0 °C
Experimental: as §3, §4

[8] = substrate: CC(=O)N[C@@H](CCC(=O)O)C(=O)N[C@@H](C)C(=O)N[C@@H](CC(C)C)C(=O)N1CCC[C@H]1C(=O)N[C@@H](CCCCN)C(=O)N[C@@H](CCCCNC(=O)CCCCCNC(=O)c1ccccc1N)C(=O)N[C@@H](Cc1ccc(O)c([N+](=O)[O-])c1)C(=O)NCC(=O)NCC(N)=O; assay: purified protein, by the assay type; settings: other: Sirt2, measured using fluorescence spectrophotometer (footnote a), 0.5 mM NAD+, 37 °C
Experimental: as §3, §4

[9] = substrate: COc1ccc2c(C[C@H](NC(=O)[C@H](CCCCNC(=O)CCCCCCCCCCNC(=O)c3cc([N+](=O)[O-])ccc3N)NC(=O)[C@H](CCCCN)NC(=O)[C@@H]3CCCN3C(=O)[C@H](CC(C)C)NC(=O)[C@H](C)NC(=O)[C@H](CCC(=O)O)NC(C)=O)C(=O)NCC(=O)NCC(N)=O)cc(=O)oc2c1; assay: purified protein, by the assay type; settings: other: MTPR (microtiter plate reader); Sirt2; 37.0 °C
Experimental: as §3, §4

B1: Sirt2 (Homo sapiens) (protein)
chain: MAEPDPSHPLETQAGKVQEAQDSDSDSEGGAAGGEADMDFLRNLFSQTLSLGSQKERLLDELTLEGVARYMQSERCRRVICLVGAGISTSAGIPDFRSPSTGLYDNLEKYHLPYPEAIFEISYFKKHPEPFFALAKELYPGQFKPTICHYFMRLLKDKGLLLRCYTQNIDTLERIAGLEQEDLVEAHGTFYTSHCVSASCRHEYPLSWMKEKIFSEVTPKCEDCQSLVKPDIVFFGESLPARFFSCMQSDFLKVDLLLVMGTSLQVQPFASLISKAPLSTPRLLINKEKAGQSDPFLGMIMGLGGGMDFDSKKAYRDVAWLGECDQGCLALAELLGWKKELEDLVRREHASIDAQSGAGVPNPSTSASPKKSPPPAKDEARTTEREKPQ
notes: made in house
[1]
  Km: 0.3 ± 0.04 µM
  kcat: 3.9∙10^-2 ± 0.1∙10^-2 s^-1
  kcat/Km: 1.18∙10^5 M^-1s^-1
[2]
  Km: 26.8 ± 2.7 µM
  kcat: 3.9∙10^-3 ± 0.2∙10^-3 s^-1
  kcat/Km: 1.46∙10^2 M^-1s^-1
[3]
  Km: 0.7 ± 0.1 µM
  kcat: 3.7∙10^-2 ± 0.1∙10^-2 s^-1
  kcat/Km: 5.30∙10^4 M^-1s^-1
[4]
  Km: 7.5 ± 1.5 µM
  kcat: 2.6∙10^-3 ± 0.2∙10^-3 s^-1
  kcat/Km: 3.42∙10^2 M^-1s^-1
[5]
  Km: 0.1 ± 0.02 µM and 0.12 ± 0.02 µM
[6]
  Km: 1.2 ± 0.1 µM
  kcat/Km: 38600 M⁻¹ s⁻¹
[7]
  Km: 15.3 ± 2.7 µM
  kcat/Km: 156 M⁻¹ s⁻¹
[8]
  Km: 17.7 ± 1.5 µM
[9]
  Km: 0.8 ± 0.1 µM
  kcat: 9.6∙10^-2 ± 0.5∙10^-2 s^-1
  kcat/Km: 1.25∙10^5 M^-1s^-1
